Measured values reported in publication PMC9157124 (Plant Physiology, 2022).

Biological target: N-terminal FLAG-tagged D1 (FLAG-D1) (Synechocystis sp. PCC 6803, UniProt P16033 1-344)
Test: co-IP

stoichiometry N: ~1
B1: Ycf48 assembly factor (natural protein, Synechocystis sp. PCC 6803 (endogenous), UniProt P73069 29-342, looked up)
chain: CSHVPDLAFNPWQEIALETDSTFADIAFTEDPNHGWLVGTKETIFETTDGGDTWEQKLIDLGEEKASFSAVSFSGNEGWITGKPSILLHTTDGGQTWARIPLSEKLPGAPYSIIALGPQTAEMITDLGAIYKTTNGGKNWKALVEGAVGVARTIQRSTDGRYVAVSARGNFYSTWAPGQTEWTPHNRNSSRRLQTMGYGKDGQLWLLARGGQLQFSTDPDAEEWSDVIAPQDKGSWGLLDLSFRTPEEVWVAGASGNLLMSQDGGQTWAKDTGVEDIPANLYRVVFLSPEKGFVLGQDGILLKYNPSTEVAMVP
